How the values were obtained:
[1] = target: T1, anti-VEGF/ANG2 antibody (IgG1 subclass with mutations P329G/L234A/L235A/I253A/H310A/H435A); test: ELISA assay C, tracer FcγRI-Dig, target 50 ng/mL
T1 construct: Format of the bispecific antibody not described; Positions are EU numbers, not positions on the UniProt entry; also called sample 1; antibody 1

[2] = target: T2, anti-IGF-1R antibody (IgG1 subclass with mutations I253A/H310A/H435A); test: ELISA assay C, tracer FcγRI-Dig, target 50 ng/mL
T2 construct: Positions are EU numbers; also called sample 3; antibody 3

[3] = target: T3, anti-VEGF/ANG2 antibody (wild-type IgG1 subclass) (UniProt P01857-1 1-330 = IgG part); test: ELISA assay C, tracer FcγRI-Dig, target 50 ng/mL
T3 construct: also called sample 5; antibody 5

[4] = target: T1, anti-VEGF/ANG2 antibody (IgG1 subclass …); test: ELISA assay B, tracer M1.7.10-Dig, target 2 ng/mL
Protocol: (§1) Biotinylated anti-PG Fc-region antibody or biotinylated anti-AAA Fc-region antibody, respectively, was bound to the wells of a streptavidin-coated multi-well plate (SA-MTP) to produce a capture plate. Excess of unbound antibody was removed by washing. Sample/standard antibodies spiked in human and cynomolgus monkey serum (10% final concentration) was added to wells of the SA-MTP multi-well plate coated with the capture plate and incubated for 1 hour at room temperature. After washing, the wells were incubated with digoxygenylated anti-human kappa antibody M1.7.10 (see e.g. WO 2011/048043, incorporated herein by reference). After washing the bound digoxygenylated anti-human kappa antibody complex was incubated with a horseradish peroxidase (HRP) labelled anti-digoxygenin antibody. After another washing step, an ABTS solution was added to the wells and incubated. The product of the color reaction was measured by Elisa reader at 405 nm wavelength (reference wavelength: 490 nm). Absorbance values of each sample or standard were determined in triplicates.

[5] = target: T4, anti-VEGF/ANG2 antibody (IgG1 subclass with mutations P329G/L234A/L235A); test: ELISA assay B, tracer M1.7.10-Dig, target 2 ng/mL
T4 construct: Positions are EU numbers; also called sample 2; antibody 2
Protocol: as §1

[6] = target: T2, anti-IGF-1R antibody (IgG1 subclass …); test: ELISA assay B, tracer M1.7.10-Dig, target 2 ng/mL
Protocol: as §1

[7] = target: T5, anti-P-Selectin antibody (IgG4 subclass with mutations S228P/L235E); test: ELISA assay B, tracer M1.7.10-Dig, target 2 ng/mL
T5 construct: Positions are EU numbers; also called sample 4; antibody 4
Protocol: as §1

[8] = target: T3, anti-VEGF/ANG2 antibody (wild-type IgG1 …); test: ELISA assay B, tracer M1.7.10-Dig, target 2 ng/mL
Protocol: as §1

[9] = target: T1, anti-VEGF/ANG2 antibody (IgG1 subclass …); test: ELISA assay B, tracer M1.7.10-Dig, target 6 ng/mL
Protocol: as §1

[10] = target: T4, anti-VEGF/ANG2 antibody (IgG1 subclass …); test: ELISA assay B, tracer M1.7.10-Dig, target 6 ng/mL
Protocol: as §1

[11] = target: T2, anti-IGF-1R antibody (IgG1 subclass …); test: ELISA assay B, tracer M1.7.10-Dig, target 6 ng/mL
Protocol: as §1

[12] = target: T5, anti-P-Selectin antibody (IgG4 subclass …); test: ELISA assay B, tracer M1.7.10-Dig, target 6 ng/mL
Protocol: as §1

[13] = target: T3, anti-VEGF/ANG2 antibody (wild-type IgG1 …); test: ELISA assay B, tracer M1.7.10-Dig, target 6 ng/mL
Protocol: as §1

[14] = target: T1, anti-VEGF/ANG2 antibody (IgG1 subclass …); test: ELISA assay C, tracer FcγRI-Dig, target 100 ng/mL
[15] = target: T4, anti-VEGF/ANG2 antibody (IgG1 subclass …); test: ELISA assay C, tracer FcγRI-Dig, target 100 ng/mL
[16] = target: T2, anti-IGF-1R antibody (IgG1 subclass …); test: ELISA assay C, tracer FcγRI-Dig, target 100 ng/mL
[17] = target: T5, anti-P-Selectin antibody (IgG4 subclass …); test: ELISA assay C, tracer FcγRI-Dig, target 100 ng/mL
[18] = target: T3, anti-VEGF/ANG2 antibody (wild-type IgG1 …); test: ELISA assay C, tracer FcγRI-Dig, target 100 ng/mL
[19] = target: T1, anti-VEGF/ANG2 antibody (IgG1 subclass …); test: ELISA assay B, tracer M1.7.10-Dig, target 0 ng/mL (blank)
Protocol: as §1

[20] = target: T4, anti-VEGF/ANG2 antibody (IgG1 subclass …); test: as above
Protocol: as §1

[21] = target: T2, anti-IGF-1R antibody (IgG1 subclass …); test: as above
Protocol: as §1

[22] = target: T5, anti-P-Selectin antibody (IgG4 subclass …); test: as above
Protocol: as §1

[23] = target: T3, anti-VEGF/ANG2 antibody (wild-type IgG1 …); test: as above
Protocol: as §1

| signal [OD405 nm] [1] [OD405 nm] | signal [OD405 nm] [2] [OD405 nm] | signal [OD405 nm] [3] [OD405 nm] | signal [OD405 nm] [4] [OD405 nm] | signal [OD405 nm] [5] [OD405 nm] | signal [OD405 nm] [6] [OD405 nm] | signal [OD405 nm] [7] [OD405 nm] | signal [OD405 nm] [8] [OD405 nm] | signal [OD405 nm] [9] [OD405 nm] | signal [OD405 nm] [10] [OD405 nm] | signal [OD405 nm] [11] [OD405 nm] | signal [OD405 nm] [12] [OD405 nm] | signal [OD405 nm] [13] [OD405 nm] | signal [OD405 nm] [14] [OD405 nm] | signal [OD405 nm] [15] [OD405 nm] | signal [OD405 nm] [16] [OD405 nm] | signal [OD405 nm] [17] [OD405 nm] | signal [OD405 nm] [18] [OD405 nm] | signal [OD405 nm] [19] [OD405 nm] | signal [OD405 nm] [20] [OD405 nm] | Binder | other results |
| --- | --- | --- | --- | --- | --- | --- | --- | --- | --- | --- | --- | --- | --- | --- | --- | --- | --- | --- | --- | --- | --- |
| 1.17 | 1.21 | 1.16 | 0.036 | 0.125 | 0.047 | 0.049 | 0.043 | 0.035 | 0.196 | 0.045 | 0.048 | 0.046 | 1.19 | 1.22 | 1.2 | 1.17 | 1.18 | 0.035 | 0.038 | anti-PG variant Fc-region antibody M1.3.17 (antibody, V domains shown, Monomeric, bivalent full-length antibody with murine variable domains; Biotinylated when used as capture antibody; also called anti-PG antibody clone 1.3.17; M1.3.17-Bi) VH: EVKLLESGGGLVQPGGSLKLSCAASGIDFRRYWMNWVRQAPGKGLEWIGEIDPDSSTINYTPSLKDKFIISRDNAKNTMYLQMRKVRSEDTALYYCARPYDYGAWFAYWGQGTLVTVSA VL: QAVVTQESALTTSPGETVTLTCRSTTGAVTTSNYANWVQEKPDHLFTGLIGGTNKRAPGVPARFSGSLIGDKAALTITGAQTEDEAIYFCALWYSDHWVFGGGTKLTVL | signal [OD405 nm] [21]: 0.045 OD405 nm; signal [OD405 nm] [22]: 0.049 OD405 nm; signal [OD405 nm] [23]: 0.043 OD405 nm |
| 0.084 | 0.095 | 0.066 | 0.049 | 1.73 | 0.047 | 0.033 | 0.034 | 0.053 | 2.98 | 0.039 | 0.037 | 0.038 | 0.05 | 0.082 | 0.11 | 0.08 | 0.073 | 0.049 | 0.046 | anti-PG variant Fc-region antibody M1.7.24 (monomeric, bivalent) (antibody, V domains shown, Full-length Y-shaped antibody with murine variable domains; Biotinylated when used as capture antibody; also called anti-PG antibody clone 1.7.24; M1.7.24-Bi) VH: EVKLLESGGGLVQPGGSLKLSCAASGFDFSRYWMNWVRQAPGKGLEWIGEITPDSSTINYTPSLKDKFIISRDNAKNTLYLQMIKVRSEDTALYYCVRPYDYGAWFASWGQGTLVTVSA VL: QAVVTQESALTTSPGETVTLTCRSSTGAVTTSNYANWVQEKPDHLFTGLIGGTNKRAPGVPARFSGSLIGDKAALTITGAQTEDEAIYFCALWYSNHWVFGGGTKLTVL | signal [OD405 nm] [21]: 0.04 OD405 nm; signal [OD405 nm] [22]: 0.035 OD405 nm; signal [OD405 nm] [23]: 0.039 OD405 nm |
| 0.077 | 1.06 | 0.067 | 0.041 | 0.041 | 1.48 | 0.032 | 0.036 | 0.039 | 0.053 | 2.73 | 0.04 | 0.039 | 0.079 | 0.076 | 2.1 | 0.069 | 0.076 | 0.047 | 0.038 | anti-AAA variant Fc-region antibody M1.6.22 (antibody, V domains shown, Murine variable domains; also called M1.6.22-Bi) VH: EVQLVESGGDLVKPGGSLKLSCAASGFTFSSYGMSWVRQTPDKRLEWVATISSGGSYIYYPDSVKGRFTISRDNAKNTLYLQMSSLKSEDTAMYYCARLGMITTGYAMDYWGQGTSVTVSS VL: DVLMTQTPLSLPVSLGDQASISCRSSQTIVHSTGHTYLEWFLQKPGQSPKLLIYKVSNRFSGVPDRFSGSGSGTDFTLKISRVEAEDLGVYYCFQGSHVPYTFGGGTKLEIK | signal [OD405 nm] [21]: 0.037 OD405 nm; signal [OD405 nm] [22]: 0.038 OD405 nm; signal [OD405 nm] [23]: 0.037 OD405 nm |

Reference: patent publication US20240410900A1 (Hoffmann-La Roche, published 2024)
